Measurements: the supplement of paper PMC10567573

B1: KLHDC10 (parent)
chain: FGGTGIPFGESNGNGVHVCNVKYK

Variants of: B1
Assay: protein stability index of a GFP-peptide fusion (GPS, HEK-293T) (PSI 1-6); higher = more stable
Conditions: c terminus: a fixed tail appended
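Note: lentivirally expressed fusions sorted by FACS into six bins by GFP to DsRed ratio, PSI derived from sequencing read proportions per bin multiplied by bin number.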

Variant	protein stability index
FGGTGIPFGESNGEGVHVCNVKYK [N14E]	2.47
FGGTGIPFGESNGFGVHVCNVKYK [N14F]	1.62
FGGTGIPFGESNGGGVHVCNVKYK [N14G]	1.54
FGGTGIPFGESNGHGVHVCNVKYK [N14H]	2.12
FGGTGIPFGESNGIGVHVCNVKYK [N14I]	1.2
FGGTGIPFGESNGKGVHVCNVKYK [N14K]	1.81
FGGTGIPFGESNGLGVHVCNVKYK [N14L]	1.81
FGGTGIPFGESNGMGVHVCNVKYK [N14M]	1.99
FGGTGIPFGESNGPGVHVCNVKYK [N14P]	1.91
FGGTGIPFGESNGQGVHVCNVKYK [N14Q]	2.03
FGGTGIPFGESNGRGVHVCNVKYK [N14R]	2.04
FGGTGIPFGESNGSGVHVCNVKYK [N14S]	1.9
FGGTGIPFGESNGTGVHVCNVKYK [N14T]	1.98
FGGTGIPFGESNGVGVHVCNVKYK [N14V]	2.67
FGGTGIPFGESNGWGVHVCNVKYK [N14W]	3.08
FGGTGIPFGESNGYGVHVCNVKYK [N14Y]	1.62
FGGTGIPFGESNGNAVHVCNVKYK [G15A]	1.59
FGGTGIPFGESNGNCVHVCNVKYK [G15C]	1.58
FGGTGIPFGESNGNDVHVCNVKYK [G15D]	2.3
FGGTGIPFGESNGNEVHVCNVKYK [G15E]	2.34
FGGTGIPFGESNGNFVHVCNVKYK [G15F]	1.49
FGGTGIPFGESNGNHVHVCNVKYK [G15H]	1.9
FGGTGIPFGESNGNIVHVCNVKYK [G15I]	1.77
FGGTGIPFGESNGNKVHVCNVKYK [G15K]	2.1

Variant	protein stability index
FGGTGIPFGESNGNLVHVCNVKYK [G15L]	1.73
FGGTGIPFGESNGNMVHVCNVKYK [G15M]	1.52
FGGTGIPFGESNGNNVHVCNVKYK [G15N]	1.52
FGGTGIPFGESNGNPVHVCNVKYK [G15P]	2.06
FGGTGIPFGESNGNQVHVCNVKYK [G15Q]	1.78
FGGTGIPFGESNGNRVHVCNVKYK [G15R]	1.82
FGGTGIPFGESNGNSVHVCNVKYK [G15S]	2.14
FGGTGIPFGESNGNTVHVCNVKYK [G15T]	1.92
FGGTGIPFGESNGNVVHVCNVKYK [G15V]	1.9
FGGTGIPFGESNGNWVHVCNVKYK [G15W]	1.62
FGGTGIPFGESNGNYVHVCNVKYK [G15Y]	1.42
FGGTGIPFGESNGNGAHVCNVKYK [V16A]	2.6
FGGTGIPFGESNGNGCHVCNVKYK [V16C]	1.19
FGGTGIPFGESNGNGDHVCNVKYK [V16D]	2.42
FGGTGIPFGESNGNGEHVCNVKYK [V16E]	2.97
FGGTGIPFGESNGNGFHVCNVKYK [V16F]	2.23
FGGTGIPFGESNGNGGHVCNVKYK [V16G]	2.47
FGGTGIPFGESNGNGHHVCNVKYK [V16H]	2.1
FGGTGIPFGESNGNGIHVCNVKYK [V16I]	2.46
FGGTGIPFGESNGNGKHVCNVKYK [V16K]	2.15
FGGTGIPFGESNGNGLHVCNVKYK [V16L]	1.39
FGGTGIPFGESNGNGMHVCNVKYK [V16M]	1.89
FGGTGIPFGESNGNGNHVCNVKYK [V16N]	2.06
FGGTGIPFGESNGNGPHVCNVKYK [V16P]	2.43

Variant	protein stability index
FGGTGIPFGESNGNGQHVCNVKYK [V16Q]	2.04
FGGTGIPFGESNGNGRHVCNVKYK [V16R]	2.97
FGGTGIPFGESNGNGSHVCNVKYK [V16S]	2.27
FGGTGIPFGESNGNGTHVCNVKYK [V16T]	1.98
FGGTGIPFGESNGNGWHVCNVKYK [V16W]	2.49
FGGTGIPFGESNGNGYHVCNVKYK [V16Y]	1.89
FGGTGIPFGESNGNGVAVCNVKYK [H17A]	1.92
FGGTGIPFGESNGNGVCVCNVKYK [H17C]	1.75
FGGTGIPFGESNGNGVDVCNVKYK [H17D]	2.54
FGGTGIPFGESNGNGVEVCNVKYK [H17E]	2.48
FGGTGIPFGESNGNGVFVCNVKYK [H17F]	2.34
FGGTGIPFGESNGNGVGVCNVKYK [H17G]	1.63
FGGTGIPFGESNGNGVIVCNVKYK [H17I]	1.91
FGGTGIPFGESNGNGVKVCNVKYK [H17K]	2.01
FGGTGIPFGESNGNGVLVCNVKYK [H17L]	2.08
FGGTGIPFGESNGNGVMVCNVKYK [H17M]	1.37
FGGTGIPFGESNGNGVNVCNVKYK [H17N]	2.03
FGGTGIPFGESNGNGVPVCNVKYK [H17P]	2.68
FGGTGIPFGESNGNGVQVCNVKYK [H17Q]	2.45
FGGTGIPFGESNGNGVRVCNVKYK [H17R]	2.13
FGGTGIPFGESNGNGVSVCNVKYK [H17S]	3.15
FGGTGIPFGESNGNGVTVCNVKYK [H17T]	2.22
FGGTGIPFGESNGNGVVVCNVKYK [H17V]	2.32
FGGTGIPFGESNGNGVWVCNVKYK [H17W]	1.64

Variant	protein stability index
FGGTGIPFGESNGNGVYVCNVKYK [H17Y]	1.52
FGGTGIPFGESNGNGVHACNVKYK [V18A]	2.1
FGGTGIPFGESNGNGVHCCNVKYK [V18C]	2.06
FGGTGIPFGESNGNGVHDCNVKYK [V18D]	3.08
FGGTGIPFGESNGNGVHECNVKYK [V18E]	2.75
FGGTGIPFGESNGNGVHFCNVKYK [V18F]	2.15
FGGTGIPFGESNGNGVHGCNVKYK [V18G]	2.24
FGGTGIPFGESNGNGVHHCNVKYK [V18H]	2.06
FGGTGIPFGESNGNGVHICNVKYK [V18I]	1.74
FGGTGIPFGESNGNGVHKCNVKYK [V18K]	1.86
FGGTGIPFGESNGNGVHLCNVKYK [V18L]	1.71
FGGTGIPFGESNGNGVHMCNVKYK [V18M]	2.24
FGGTGIPFGESNGNGVHNCNVKYK [V18N]	2.31
FGGTGIPFGESNGNGVHPCNVKYK [V18P]	1.97
FGGTGIPFGESNGNGVHQCNVKYK [V18Q]	2.04
FGGTGIPFGESNGNGVHRCNVKYK [V18R]	2.03
FGGTGIPFGESNGNGVHSCNVKYK [V18S]	2.45
FGGTGIPFGESNGNGVHTCNVKYK [V18T]	2.27
FGGTGIPFGESNGNGVHWCNVKYK [V18W]	1.75
FGGTGIPFGESNGNGVHYCNVKYK [V18Y]	2.19
FGGTGIPFGESNGNGVHVANVKYK [C19A]	2.31
FGGTGIPFGESNGNGVHVDNVKYK [C19D]	2.62
FGGTGIPFGESNGNGVHVENVKYK [C19E]	2.76
FGGTGIPFGESNGNGVHVFNVKYK [C19F]	2.62

Variant	protein stability index
FGGTGIPFGESNGNGVHVGNVKYK [C19G]	2.06
FGGTGIPFGESNGNGVHVHNVKYK [C19H]	1.46
FGGTGIPFGESNGNGVHVINVKYK [C19I]	1.75
FGGTGIPFGESNGNGVHVKNVKYK [C19K]	2.08
FGGTGIPFGESNGNGVHVLNVKYK [C19L]	1.97
FGGTGIPFGESNGNGVHVMNVKYK [C19M]	2.15
FGGTGIPFGESNGNGVHVNNVKYK [C19N]	2.38
FGGTGIPFGESNGNGVHVPNVKYK [C19P]	2.21
FGGTGIPFGESNGNGVHVQNVKYK [C19Q]	2.29
FGGTGIPFGESNGNGVHVRNVKYK [C19R]	2.35
FGGTGIPFGESNGNGVHVSNVKYK [C19S]	2.01
FGGTGIPFGESNGNGVHVTNVKYK [C19T]	2.01
FGGTGIPFGESNGNGVHVVNVKYK [C19V]	2.07
FGGTGIPFGESNGNGVHVWNVKYK [C19W]	1.71
FGGTGIPFGESNGNGVHVYNVKYK [C19Y]	2.06
FGGTGIPFGESNGNGVHVCAVKYK [N20A]	2.35
FGGTGIPFGESNGNGVHVCCVKYK [N20C]	1.11
FGGTGIPFGESNGNGVHVCDVKYK [N20D]	1.98
FGGTGIPFGESNGNGVHVCEVKYK [N20E]	1.92
FGGTGIPFGESNGNGVHVCFVKYK [N20F]	2.06
FGGTGIPFGESNGNGVHVCGVKYK [N20G]	1.66
FGGTGIPFGESNGNGVHVCHVKYK [N20H]	1.48
FGGTGIPFGESNGNGVHVCIVKYK [N20I]	1.82
FGGTGIPFGESNGNGVHVCKVKYK [N20K]	2.44

Variant	protein stability index
FGGTGIPFGESNGNGVHVCLVKYK [N20L]	1.36
FGGTGIPFGESNGNGVHVCMVKYK [N20M]	1.38
FGGTGIPFGESNGNGVHVCPVKYK [N20P]	1.52
FGGTGIPFGESNGNGVHVCQVKYK [N20Q]	1.87
FGGTGIPFGESNGNGVHVCRVKYK [N20R]	2.15
FGGTGIPFGESNGNGVHVCSVKYK [N20S]	1.65
FGGTGIPFGESNGNGVHVCTVKYK [N20T]	1.75
FGGTGIPFGESNGNGVHVCVVKYK [N20V]	1.55
FGGTGIPFGESNGNGVHVCWVKYK [N20W]	2.83
FGGTGIPFGESNGNGVHVCYVKYK [N20Y]	2.23
FGGTGIPFGESNGNGVHVCNAKYK [V21A]	1.74
FGGTGIPFGESNGNGVHVCNCKYK [V21C]	2.04
FGGTGIPFGESNGNGVHVCNDKYK [V21D]	2.14
FGGTGIPFGESNGNGVHVCNEKYK [V21E]	2.31
FGGTGIPFGESNGNGVHVCNFKYK [V21F]	1.82
FGGTGIPFGESNGNGVHVCNGKYK [V21G]	1.78
FGGTGIPFGESNGNGVHVCNHKYK [V21H]	1.7
FGGTGIPFGESNGNGVHVCNIKYK [V21I]	2.78
FGGTGIPFGESNGNGVHVCNKKYK [V21K]	1.98
FGGTGIPFGESNGNGVHVCNLKYK [V21L]	1.58
FGGTGIPFGESNGNGVHVCNMKYK [V21M]	1.95
FGGTGIPFGESNGNGVHVCNNKYK [V21N]	2.54
FGGTGIPFGESNGNGVHVCNPKYK [V21P]	1.92
FGGTGIPFGESNGNGVHVCNQKYK [V21Q]	2.14

Variant	protein stability index
FGGTGIPFGESNGNGVHVCNRKYK [V21R]	1.72
FGGTGIPFGESNGNGVHVCNSKYK [V21S]	2.38
FGGTGIPFGESNGNGVHVCNTKYK [V21T]	2.17
FGGTGIPFGESNGNGVHVCNWKYK [V21W]	1.86
FGGTGIPFGESNGNGVHVCNYKYK [V21Y]	2.5
FGGTGIPFGESNGNGVHVCNVAYK [K22A]	2.53
FGGTGIPFGESNGNGVHVCNVCYK [K22C]	1.24
FGGTGIPFGESNGNGVHVCNVDYK [K22D]	2.35
FGGTGIPFGESNGNGVHVCNVEYK [K22E]	2.4
FGGTGIPFGESNGNGVHVCNVFYK [K22F]	1.63
FGGTGIPFGESNGNGVHVCNVGYK [K22G]	1.98
FGGTGIPFGESNGNGVHVCNVHYK [K22H]	2.07
FGGTGIPFGESNGNGVHVCNVIYK [K22I]	1.83
FGGTGIPFGESNGNGVHVCNVLYK [K22L]	1.29
FGGTGIPFGESNGNGVHVCNVMYK [K22M]	1.9
FGGTGIPFGESNGNGVHVCNVNYK [K22N]	1.8
FGGTGIPFGESNGNGVHVCNVPYK [K22P]	1.91
FGGTGIPFGESNGNGVHVCNVQYK [K22Q]	2.89
FGGTGIPFGESNGNGVHVCNVRYK [K22R]	2.34
FGGTGIPFGESNGNGVHVCNVSYK [K22S]	1.29
FGGTGIPFGESNGNGVHVCNVTYK [K22T]	1.98
FGGTGIPFGESNGNGVHVCNVVYK [K22V]	2.24
FGGTGIPFGESNGNGVHVCNVWYK [K22W]	2.1
FGGTGIPFGESNGNGVHVCNVYYK [K22Y]	1.95

Variant	protein stability index
FGGTGIPFGESNGNGVHVCNVKAK [Y23A]	2.76
FGGTGIPFGESNGNGVHVCNVKCK [Y23C]	2.54
FGGTGIPFGESNGNGVHVCNVKDK [Y23D]	3.3
FGGTGIPFGESNGNGVHVCNVKEK [Y23E]	2.47
FGGTGIPFGESNGNGVHVCNVKFK [Y23F]	2.03
FGGTGIPFGESNGNGVHVCNVKGK [Y23G]	2.04
FGGTGIPFGESNGNGVHVCNVKHK [Y23H]	2.43
FGGTGIPFGESNGNGVHVCNVKIK [Y23I]	2.38
FGGTGIPFGESNGNGVHVCNVKKK [Y23K]	2.01
FGGTGIPFGESNGNGVHVCNVKLK [Y23L]	2.07
FGGTGIPFGESNGNGVHVCNVKMK [Y23M]	2.1
FGGTGIPFGESNGNGVHVCNVKNK [Y23N]	2.49
FGGTGIPFGESNGNGVHVCNVKPK [Y23P]	2.41
FGGTGIPFGESNGNGVHVCNVKQK [Y23Q]	2.28
FGGTGIPFGESNGNGVHVCNVKRK [Y23R]	2.17
FGGTGIPFGESNGNGVHVCNVKSK [Y23S]	2.99
FGGTGIPFGESNGNGVHVCNVKTK [Y23T]	2.14
FGGTGIPFGESNGNGVHVCNVKVK [Y23V]	2.23
FGGTGIPFGESNGNGVHVCNVKWK [Y23W]	2.62
FGGTGIPFGESNGNGVHVCNVKYA [K24A]	1.23
